Reference: article PMC8755542, “HELQ is a dual-function DSB repair enzyme modulated by RPA and RAD51” (Nature, 2021)
Numbering of substitutions follows the chain as printed. Numbers in names are those of the source. Values belong to the binder of their own block, whether it stands above or below them.

Columns and labels:
[1] = target: T1, HELQ;RPA-eGFP (human;human, UniProt Q8TDG4;P27694;P15927;P35244 1-1101;1-616;1-270;1-121, |); test: single-molecule oligo capture; capture on RPA-eGFP-coated lambda ssDNA; dwell time 134 s; EMSA: 25 mM Tris-HCl pH 8.0, 2 mM ATP, 2 mM MgCl2, 1 mM DTT, 50 mM NaCl, 0.1 mg/ml BSA, 25 nM DNA, 10 min 37 C (20 min for RAD51 +/- HELQ); single-molecule at room temperature in similar buffer; conditions: protein: recombinant;recombinant; tags: C-terminal Flag; N-terminal MBP removed with PreScission;eGFP; copies: 1;1;1;1; label: 5' Cy3; single strand
T1 sequence (P27694 whole entry, chain 2 of 3): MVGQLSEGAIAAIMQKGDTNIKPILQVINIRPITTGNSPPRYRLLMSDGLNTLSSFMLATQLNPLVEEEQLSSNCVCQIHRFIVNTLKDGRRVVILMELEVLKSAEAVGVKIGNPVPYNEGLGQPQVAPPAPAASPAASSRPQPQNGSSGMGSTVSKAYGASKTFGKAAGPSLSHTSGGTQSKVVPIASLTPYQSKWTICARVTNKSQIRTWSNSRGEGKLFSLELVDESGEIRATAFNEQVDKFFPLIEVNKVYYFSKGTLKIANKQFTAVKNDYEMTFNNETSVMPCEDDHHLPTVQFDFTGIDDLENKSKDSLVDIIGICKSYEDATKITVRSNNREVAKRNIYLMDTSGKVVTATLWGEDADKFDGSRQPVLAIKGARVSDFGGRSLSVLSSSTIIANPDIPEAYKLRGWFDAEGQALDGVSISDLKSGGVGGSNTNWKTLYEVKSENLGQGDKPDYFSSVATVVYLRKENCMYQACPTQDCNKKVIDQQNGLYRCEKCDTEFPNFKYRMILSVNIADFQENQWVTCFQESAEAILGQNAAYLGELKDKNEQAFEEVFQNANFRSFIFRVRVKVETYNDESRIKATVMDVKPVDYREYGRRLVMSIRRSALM
T1 sequence (P15927 whole entry, chain 3 of 3): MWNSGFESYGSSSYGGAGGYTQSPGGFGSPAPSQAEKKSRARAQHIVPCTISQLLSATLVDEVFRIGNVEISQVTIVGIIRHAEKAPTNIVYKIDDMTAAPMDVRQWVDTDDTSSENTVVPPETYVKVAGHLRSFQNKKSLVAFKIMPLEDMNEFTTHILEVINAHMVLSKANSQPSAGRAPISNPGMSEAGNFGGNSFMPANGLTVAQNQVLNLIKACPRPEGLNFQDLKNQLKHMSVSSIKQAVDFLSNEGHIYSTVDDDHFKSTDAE
T1 sequence (P35244 whole entry, chain 4 of 3): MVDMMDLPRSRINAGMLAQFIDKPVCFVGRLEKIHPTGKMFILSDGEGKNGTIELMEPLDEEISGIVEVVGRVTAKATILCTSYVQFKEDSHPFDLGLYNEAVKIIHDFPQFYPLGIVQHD

[2] = target: HELQ(K365M);RPA-eGFP (human;human, UniProt Q8TDG4;P27694;P15927;P35244 1-1101;1-616;1-270;1-121, K365M|); test: single-molecule oligo capture; capture on RPA-eGFP-coated lambda ssDNA; dwell time 179 s; EMSA: 25 mM Tris-HCl pH 8.0, 2 mM ATP, 2 mM MgCl2, 1 mM DTT, 50 mM NaCl, 0.1 mg/ml BSA, 25 nM DNA, 10 min 37 C (20 min for RAD51 +/- HELQ); single-molecule at room temperature in similar buffer; conditions: protein: recombinant;recombinant; tags: C-terminal Flag; N-terminal MBP removed with PreScission;eGFP; copies: 1;1;1;1; label: 5' Cy3; single strand
HELQ(K365M);RPA-eGFP, sequence (P27694 whole entry, chain 2 of 3): as the sequence (P27694 whole entry, chain 2 of 3) above
HELQ(K365M);RPA-eGFP, sequence (P15927 whole entry, chain 3 of 3): as the sequence (P15927 whole entry, chain 3 of 3) above
HELQ(K365M);RPA-eGFP, sequence (P35244 whole entry, chain 4 of 3): as the sequence (P35244 whole entry, chain 4 of 3) above

[3] = target: T1, HELQ;RPA-eGFP; test: single-molecule oligo capture; capture on RPA-eGFP-coated lambda ssDNA; EMSA: 25 mM Tris-HCl pH 8.0, 2 mM ATP, 2 mM MgCl2, 1 mM DTT, 50 mM NaCl, 0.1 mg/ml BSA, 25 nM DNA, 10 min 37 C (20 min for RAD51 +/- HELQ); single-molecule at room temperature in similar buffer; conditions: protein: recombinant;recombinant; tags: C-terminal Flag; N-terminal MBP removed with PreScission;eGFP; copies: 1;1;1;1; label: Cy3 (5' in oligo list, 3' in capture assay); single strand
[4] = target: HELQ(K365M);RPA-mRFP1 (human;human, UniProt Q8TDG4;P27694;P15927;P35244 1-1101;1-616;1-270;1-121, K365M|); test: pull-down; via biotin-dT43 on streptavidin beads; RPA fusion not stated; EMSA: 25 mM Tris-HCl pH 8.0, 2 mM ATP, 2 mM MgCl2, 1 mM DTT, 50 mM NaCl, 0.1 mg/ml BSA, 25 nM DNA, 10 min 37 C (20 min for RAD51 +/- HELQ); single-molecule at room temperature in similar buffer; conditions: protein: recombinant;recombinant; tags: C-terminal Flag; N-terminal MBP removed with PreScission;mRFP1; copies: 1;1;1;1; label: Cy3 (5' in oligo list, 3' in capture assay); single strand
HELQ(K365M);RPA-mRFP1, sequence (P27694 whole entry, chain 2 of 3, the tested form may be a part): as the sequence (P27694 whole entry, chain 2 of 3) above
HELQ(K365M);RPA-mRFP1, sequence (P15927 whole entry, chain 3 of 3, the tested form may be a part): as the sequence (P15927 whole entry, chain 3 of 3) above
HELQ(K365M);RPA-mRFP1, sequence (P35244 whole entry, chain 4 of 3, the tested form may be a part): as the sequence (P35244 whole entry, chain 4 of 3) above

[5] = target: HELQ;RPA-mRFP1 (human;human, UniProt Q8TDG4;P27694;P15927;P35244 1-1101;1-616;1-270;1-121, |); test: pull-down; via biotin-dT43 on streptavidin beads; 82 nM RPA, fusion not stated; EMSA: 25 mM Tris-HCl pH 8.0, 2 mM ATP, 2 mM MgCl2, 1 mM DTT, 50 mM NaCl, 0.1 mg/ml BSA, 25 nM DNA, 10 min 37 C (20 min for RAD51 +/- HELQ); single-molecule at room temperature in similar buffer; conditions: protein: recombinant;recombinant; tags: C-terminal Flag; N-terminal MBP removed with PreScission;mRFP1; copies: 1;1;1;1; label: Cy3 (5' in oligo list, 3' in capture assay); single strand
HELQ;RPA-mRFP1, sequence (P27694 whole entry, chain 2 of 3, the tested form may be a part): as the sequence (P27694 whole entry, chain 2 of 3) above
HELQ;RPA-mRFP1, sequence (P15927 whole entry, chain 3 of 3, the tested form may be a part): as the sequence (P15927 whole entry, chain 3 of 3) above
HELQ;RPA-mRFP1, sequence (P35244 whole entry, chain 4 of 3, the tested form may be a part): as the sequence (P35244 whole entry, chain 4 of 3) above

[6] = target: T2, HELQ (wild type, purified recombinant human HELQ) (human, UniProt Q8TDG4 1-1101); test: single-molecule imaging (optical tweezers with confocal microscopy, C-Trap); gapped λ-DNA held between beads at constant force of 50 pN; 25 nM Alx–RAD51 with or without 50 nM HELQ or HELQ(K365M) in 1× HELQ buffer (25 mM Tris-HCl pH 8.0, 2 mM MgCl2, 50 mM NaCl), 2 mM ATP, 0.2 mg/ml BSA, 1 mM DTT; room temperature; kymographs of Alx–RAD51; conditions: both partners purified
T2 construct: human HELQ helicase; custom HELQ ORF (GeneArt); Eluted from Flag resin with 3xFlag peptide; no removal of the Flag tag is described; also called HELQ WT; WT HELQ; source: Sf9 insect cells, purified (amylose, PreScission cleavage of MBP, anti-Flag resin); not shown: MBP, N-terminal, cleaved
T2 sequence (looked up): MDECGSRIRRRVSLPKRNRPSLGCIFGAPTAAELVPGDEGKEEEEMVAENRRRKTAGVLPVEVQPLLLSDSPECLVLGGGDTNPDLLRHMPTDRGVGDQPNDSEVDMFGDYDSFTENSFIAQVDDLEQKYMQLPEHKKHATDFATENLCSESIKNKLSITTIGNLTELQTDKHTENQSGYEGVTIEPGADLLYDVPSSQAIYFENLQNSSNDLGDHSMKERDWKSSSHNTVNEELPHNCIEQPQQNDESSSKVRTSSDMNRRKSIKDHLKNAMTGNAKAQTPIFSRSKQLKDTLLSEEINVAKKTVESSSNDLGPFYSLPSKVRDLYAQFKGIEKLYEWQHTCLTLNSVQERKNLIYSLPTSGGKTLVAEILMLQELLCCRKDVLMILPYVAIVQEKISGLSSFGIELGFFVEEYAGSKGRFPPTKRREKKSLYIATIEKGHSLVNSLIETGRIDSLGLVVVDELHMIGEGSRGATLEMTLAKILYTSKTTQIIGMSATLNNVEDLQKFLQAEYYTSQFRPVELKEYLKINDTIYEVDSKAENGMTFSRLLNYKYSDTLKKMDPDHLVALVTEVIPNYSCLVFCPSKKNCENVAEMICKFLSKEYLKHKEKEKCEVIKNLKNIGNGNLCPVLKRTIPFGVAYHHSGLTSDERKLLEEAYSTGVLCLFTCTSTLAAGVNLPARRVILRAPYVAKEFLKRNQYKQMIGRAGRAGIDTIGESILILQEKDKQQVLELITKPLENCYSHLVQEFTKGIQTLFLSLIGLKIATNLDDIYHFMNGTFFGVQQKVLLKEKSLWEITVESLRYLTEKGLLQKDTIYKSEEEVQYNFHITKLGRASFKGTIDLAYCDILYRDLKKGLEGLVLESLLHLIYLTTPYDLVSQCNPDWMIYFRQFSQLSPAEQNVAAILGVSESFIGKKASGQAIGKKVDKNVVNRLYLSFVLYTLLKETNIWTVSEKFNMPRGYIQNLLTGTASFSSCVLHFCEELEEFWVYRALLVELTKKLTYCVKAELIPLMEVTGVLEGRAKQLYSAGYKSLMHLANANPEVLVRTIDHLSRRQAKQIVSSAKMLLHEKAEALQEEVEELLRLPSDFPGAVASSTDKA

[7] = target: T3, HELQ(K365M) (human, UniProt Q8TDG4 1-1101, K365M); test: as above; conditions: both partners purified
T3 construct: human HELQ helicase with the helicase-dead mutation K365M, made from pFB-MBP-HELQ-Flag by site-directed mutagenesis; also called helicase-dead HELQ; HELQ KM; source: Sf9 insect cells, purified (same procedure as wild-type HELQ); not shown: MBP, N-terminal, cleaved
T3 sequence (looked up): T2 sequence (looked up) with K365M

[8] = target: T4, HELQ(K365M) (human, UniProt Q8TDG4 1-1101, K365M); test: EMSA; 2 mM ATP, 2 mM Mg2+; EMSA: 25 mM Tris-HCl pH 8.0, 2 mM ATP, 2 mM MgCl2, 1 mM DTT, 50 mM NaCl, 0.1 mg/ml BSA, 25 nM DNA, 10 min 37 C (20 min for RAD51 +/- HELQ); single-molecule at room temperature in similar buffer; conditions: protein: recombinant, tags: C-terminal Flag, N-terminal MBP removed with PreScission
T4 sequence: T2 sequence (looked up) with K365M

B1: lambda4 80-mer (ssDNA)
DNA: CCTGAACGACCAGGCGTCTTCGTTCATCTATCGGATCGCCACACTCACAACAATGAGTGGCAGATATAGCCTGGTGGTTC
binding result [1]: binds
binding result [2]: binds

B2: dT79 (ssDNA)
DNA: TTTTTTTTTTTTTTTTTTTTTTTTTTTTTTTTTTTTTTTTTTTTTTTTTTTTTTTTTTTTTTTTTTTTTTTTTTTTTTT
binding result [3]: binds
binding result [4]: binds
binding result [5]: binds

binding result [6]: binds
binding result [7]: binds
B3: Alx–RAD51 (RAD51(C319S) labelled with Alexa Fluor 488 C5 maleimide) (natural protein, human, UniProt Q06609 1-339, looked up)
chain: MAMQMQLEANADTSVEEESFGPQPISRLEQCGINANDVKKLEEAGFHTVEAVAYAPKKELINIKGISEAKADKILAEAAKLVPMGFTTATEFHQRRSEIIQITTGSKELDKLLQGGIETGSITEMFGEFRTGKTQICHTLAVTCQLPIDRGGGEGKAMYIDTEGTFRPERLLAVAERYGLSGSDVLDNVAYARAFNTDHQTQLLYQASAMMVESRYALLIVDSATALYRTDYSGRGELSARQMHLARFLRMLLRLADEFGVAVVITNQVVAQVDGAAMFAADPKKPIGGNIIAHASTTRLYLRKGRGETRICKIYDSPSLPEAEAMFAINADGVGDAKD
modifications: Alexa Fluor 488 C5 maleimide label (1:1 labelling stoichiometry; labelled residue not given)
notes: human RAD51 recombinase with the mutation C319S; also called RAD51(A488); source: E. coli, purified as WT RAD51, then labelled and separated from free dye (Zeba column)

B4: ssDNA (oligo 1) (ssDNA)
DNA: AGCTACCATGCCTGCACGAATTAAGCAATTCGTAATCATGGTCATAGCT
binding result ([8]; label: 5' FITC, single strand 49 nt): binds

B5: dsDNA (oligo 1 + oligo 2) (dsDNA)
DNA 1: B4 DNA
DNA 2: AGCTATGACCATGATTACGAATTGCTTAATTCGTGCAGGCATGGTAGCT
binding result ([8]; label: 5' FITC on strand 1, blunt 49 bp): binds
